Results taken from paper PMC7271239, “Structural and catalytic analysis of two diverse uridine phosphorylases in Phytophthora capsici” (Scientific Reports, 2020).

How the values were obtained:
[1] = biological target: T1, PcUP1 (Phytophthora capsici, UniProt A0A410UCT3); test: X-ray crystal structure, […] Å; type: binding; details: with 2'-deoxyuridine (also with thymidine, 6K8P); phosphate site; crystals grown in phosphate
T1 construct: gene up; homodimer, active site at the dimer interface (His19 and Arg59 from the neighbouring monomer)
T1 sequence (A0A410UCT3 1-296): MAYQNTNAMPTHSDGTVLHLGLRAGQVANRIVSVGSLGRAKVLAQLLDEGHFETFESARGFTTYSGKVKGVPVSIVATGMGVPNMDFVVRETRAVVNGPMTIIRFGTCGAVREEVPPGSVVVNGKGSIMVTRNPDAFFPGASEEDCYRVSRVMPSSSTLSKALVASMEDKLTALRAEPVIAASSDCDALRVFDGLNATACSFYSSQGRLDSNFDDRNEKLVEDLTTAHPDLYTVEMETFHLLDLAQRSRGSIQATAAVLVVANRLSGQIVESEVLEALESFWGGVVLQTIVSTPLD

[2] = substrate: O=c1ccn([C@@H]2O[C@H](CO)[C@@H](O)[C@H]2O)c(=O)[nH]1; test: HPLC of uracil formed, Michaelis-Menten fit; type: biochemical, Phytophthora capsici; details: phosphorolysis, uridine 0.25-5 mM, 10 mM Na2HPO4, pH 7.5, 25 °C, kcat assumes Et = 2

O=P(O)(O)O [phosphate]
X-ray crystal structure, 2.1 Å [1]: Arg59 is an important residue in the phosphate-bonding pocket, forming two hydrogen bonds

B1: PcUP1 (Phytophthora capsici) (protein)
chain: MAYQNTNAMPTHSDGTVLHLGLRAGQVANRIVSVGSLGRAKVLAQLLDEGHFETFESARGFTTYSGKVKGVPVSIVATGMGVPNMDFVVRETRAVVNGPMTIIRFGTCGAVREEVPPGSVVVNGKGSIMVTRNPDAFFPGASEEDCYRVSRVMPSSSTLSKALVASMEDKLTALRAEPVIAASSDCDALRVFDGLNATACSFYSSQGRLDSNFDDRNEKLVEDLTTAHPDLYTVEMETFHLLDLAQRSRGSIQATAAVLVVANRLSGQIVESEVLEALESFWGGVVLQTIVSTPLD
notes: homodimer, active site at the dimer interface (His19 and Arg59 from the neighbouring monomer)
Km [2]: 6.96 ± 1.52 mM
kcat [2]: 982 ± 152 s⁻¹

B2: PcUP2 (Phytophthora capsici) (protein)
chain: MAPNMDAVADATAQVHVRNSHILEMHSDVLFHIGLTCSQEERQQVANTFGDVKFFITGGSAERMTHFAQSVAKELGITTPYGYQLAPIGSTSRYTLFKVGPVLVANHGIGMPSISILLHEVTKLLEYAGAHGATYIRMGTSGGIGVEPGTVVITSEGVNNKLESVDEVAVLGSTVRRPSICSPEVREEIITAAKEVGLPYAVGKTLSCNDFYEGQGRLDGAICEYTLEDKMAFLQKLADAGVRNIEMEARLMAGFCHKLNIPVAVVCVTLLNRLNGDQVLSSHETLQDFERRPGAVLLHYIKSKVNASA
Km [2]: 7.55 ± 0.6 mM
kcat [2]: 1188 ± 90 s⁻¹
